The supplement of paper PMC9233669
Fewer inactive variants are shown than the library holds.

Columns and labels:
biotinyl-Phe-oxazolone = test: self-aminoacylation, catalytic enhancement (BFO) (fold over background); higher = more active; k-Seq, kA / k0A0; sequences stand for … in GGGAAUGGAUCCACAUCUACGAAUUC…UUCACUGCAGACUUGACGAAGCUG
Summary of the method: (§1)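 Each biotinyl-aminoacyl-oxazolone, at 2–1250 μM, was incubated with mutagenized RNA pools (0.43 μM) carrying a 21-nt variable region. The 50 μL reactions contained HEPES/NaCl/KCl/MgCl2/CaCl2 buffer with 5% acetonitrile at pH 6.9–7.0 and ran for 90 minutes at room temperature. After streptavidin capture, RNA was measured by qPCR in triplicate and by Illumina sequencing, and catalytic enhancement was calculated as median kA over the uncatalyzed rate from a pseudo-first-order fit of per-sequence fraction reacted.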

biotinyl-Met-oxazolone = test: self-aminoacylation, catalytic enhancement (BMO) (fold over background); higher = more active; k-Seq, kA / k0A0; sequences stand for … in GGGAAUGGAUCCACAUCUACGAAUUC…UUCACUGCAGACUUGACGAAGCUG
Summary of the method: as §1

biotinyl-Ile-oxazolone = test: self-aminoacylation, catalytic enhancement (BIO) (fold over background); higher = more active; k-Seq, kA / k0A0; sequences stand for … in GGGAAUGGAUCCACAUCUACGAAUUC…UUCACUGCAGACUUGACGAAGCUG
Summary of the method: as §1

biotinyl-Trp-oxazolone = test: self-aminoacylation, catalytic enhancement (BWO) (fold over background); higher = more active; k-Seq, kA / k0A0; sequences stand for … in GGGAAUGGAUCCACAUCUACGAAUUC…UUCACUGCAGACUUGACGAAGCUG
Summary of the method: as §1

biotinyl-Val-oxazolone = test: self-aminoacylation, catalytic enhancement (BVO) (fold over background); higher = more active; k-Seq, kA / k0A0; sequences stand for … in GGGAAUGGAUCCACAUCUACGAAUUC…UUCACUGCAGACUUGACGAAGCUG
Summary of the method: as §1

biotinyl-Leu-oxazolone = test: self-aminoacylation, catalytic enhancement (BLO) (fold over background); higher = more active; k-Seq, kA / k0A0; sequences stand for … in GGGAAUGGAUCCACAUCUACGAAUUC…UUCACUGCAGACUUGACGAAGCUG
Summary of the method: as §1

| Sequence | self-aminoacylation (biotinyl-Phe-oxazolone) | self-aminoacylation (biotinyl-Met-oxazolone) | self-aminoacylation (biotinyl-Ile-oxazolone) | self-aminoacylation (biotinyl-Trp-oxazolone) | self-aminoacylation (biotinyl-Val-oxazolone) | self-aminoacylation (biotinyl-Leu-oxazolone) |
| --- | --- | --- | --- | --- | --- | --- |
| AUUUACCUAGGUUAUCGGGUG [Fam2.2 aminoacylation ribozyme variant] | 23.2 | 3.44 | 2.29 | 3.72 | 2.4 | 3.48 |
| AUUUACCUCGGUCAUCGGGUG [Fam2.2 aminoacylation ribozyme variant] | 54.6 | 6.78 | 4.06 | 7.01 | 4.9 | 8.51 |
| AUUUACCUGGGUCAUCGGGUG [Fam2.2 aminoacylation ribozyme variant] | 57.3 | 18.5 | 8.99 | 17.2 | 10.3 | 22.1 |
| AUUUCCCUAGGUCAUCGGGUG [Fam2.2 aminoacylation ribozyme variant] | 70.4 | 10.3 | 6.29 | 9.73 | 6.97 | 13.5 |
| AUUUCCCUGGACAUCGAGUGA [Fam2.1 aminoacylation ribozyme variant] | 41.7 | 6.51 | 2.83 | 8.11 | 3.54 | 5.46 |
| AUUUCCCUGGUCAUCGAGUGC [Fam2.1 aminoacylation ribozyme variant] | 2.11 | 1.86 | 1.1 | 1.21 | 1.08 | 1.59 |
| AUUUCCCUGGUCAUCUAGUGA [Fam2.1 aminoacylation ribozyme variant] | 76.6 | 8.93 | 4.45 | 11.7 | 4.67 | 9.47 |
| AUUUCCGUGGUCAUCGAGUGA [Fam2.1 aminoacylation ribozyme variant] | 52.8 | 6.67 | 3.67 | 8.19 | 4.26 | 6.35 |
| AUUUCCUUGGUCAUCGAGUGA [Fam2.1 aminoacylation ribozyme variant] | 43.8 | 8.2 | 4.35 | 11.1 | 4.63 | 8.92 |
| AUUUGCCUGGUCAUCGAGUGA [Fam2.1 aminoacylation ribozyme variant] | 13.1 | 8 | 4.47 | 9.16 | 4.54 | 8.2 |
| AUUUUUGCUAAUAGUCGCAAG [Fam3.1 aminoacylation ribozyme variant] | 1.71 | 1.07 | 1.37 | 1.02 | 1.02 | 0.994 |
| CAACAAUUCAAGCAAUCGGUC [Fam1B.1 aminoacylation ribozyme variant] | 1.71 | 1.1 | 1.16 | 1.31 | 0.937 | 1.01 |
| CAACACUCCAAGCAAUCGGUC [Fam1B.1 aminoacylation ribozyme variant] | 1.67 | 1.02 | 1.13 | 1.77 | 1.06 | 0.956 |
| CAACACUGCAAGCAAUCGGUC [Fam1B.1 aminoacylation ribozyme variant] | 0.892 | 1.3 | 1.12 | 0.788 | 1.24 | 1.46 |
| CAACACUUCAAGCAACCGGUC [Fam1B.1 aminoacylation ribozyme variant] | 1.59 | 1.12 | 1 | 0.754 | 0.998 | 1.2 |
| CAACACUUCAAGCUAUCGGUC [Fam1B.1 aminoacylation ribozyme variant] | 0.964 | 1.03 | 1.2 | 1.02 | 1.05 | 0.89 |
| CAACACUUCAGGCAAUCGGUC [Fam1B.1 aminoacylation ribozyme variant] | 1.27 | 1.12 | 1.43 | 1.3 | 1.19 | 1.34 |
| CAACUUAAAACAAUCGGUCUG [Fam1A.1 aminoacylation ribozyme variant] | 1.71 | 1.09 | 0.984 | 0.948 | 1.14 | 1.11 |
| CAACUUCAAACAAUCGGUUUG [Fam1A.1 aminoacylation ribozyme variant] | 87.8 | 1.71 | 1.51 | 44 | 1.62 | 2.6 |
| CAACUUCAAACAAUCGUUCUG [Fam1A.1 aminoacylation ribozyme variant] | 1.83 | 0.624 | 0.675 | 1.03 | 0.734 | 0.728 |
| CAACUUCAAACAAUGGGUCUG [Fam1A.1 aminoacylation ribozyme variant] | 2.23 | 0.966 | 1.21 | 0.937 | 0.929 | 1.06 |
| CAACUUCAAACAGUCGGUCUG [Fam1A.1 aminoacylation ribozyme variant] | 5.76 | 1.2 | 1.21 | 0.928 | 1.19 | 1.08 |
| CAACUUCAAACCAUCGGUCUG [Fam1A.1 aminoacylation ribozyme variant] | 1.41 | 0.913 | 1.06 | 1.14 | 1.1 | 1.07 |
| CAACUUCAACCAAUCGGUCUG [Fam1A.1 aminoacylation ribozyme variant] | 66.9 | 1.67 | 1.37 | 33.2 | 1.61 | 2.41 |
| CAACUUCAUACAAUCGGUCUG [Fam1A.1 aminoacylation ribozyme variant] | 1.65 | 0.861 | 1.06 | 0.771 | 0.962 | 1.04 |
| CAACUUCCAACAAUCGGUCUG [Fam1A.1 aminoacylation ribozyme variant] | 1.69 | 1.15 | 1.13 | 1.14 | 0.929 | 0.985 |

| Sequence | self-aminoacylation (biotinyl-Phe-oxazolone) | self-aminoacylation (biotinyl-Met-oxazolone) | self-aminoacylation (biotinyl-Ile-oxazolone) | self-aminoacylation (biotinyl-Trp-oxazolone) | self-aminoacylation (biotinyl-Val-oxazolone) | self-aminoacylation (biotinyl-Leu-oxazolone) |
| --- | --- | --- | --- | --- | --- | --- |
| CAGCACUUCAAGCAAUCGGUC [Fam1B.1 aminoacylation ribozyme variant] | 34.4 | 1.79 | 1.67 | 22.1 | 1.55 | 2.33 |
| CAGUGUGCUAAUAGUCGCAAG [Fam3.1 aminoacylation ribozyme variant] | 1.76 | 1.58 | 1.51 | 1.59 | 1.46 | 1.46 |
| CAGUUUGCAAAUAGUCGCAAG [Fam3.1 aminoacylation ribozyme variant] | 2.37 | 1.65 | 1.72 | 2.02 | 1.52 | 2.03 |
| CAGUUUGCUAAUAAUCGCAAG [Fam3.1 aminoacylation ribozyme variant] | 1.1 | 1 | 0.97 | 0.939 | 1.03 | 0.99 |
| CAGUUUGCUAAUAGCCGCAAG [Fam3.1 aminoacylation ribozyme variant] | 1.44 | 1.26 | 1.86 | 1.07 | 1.46 | 1.69 |
| CAGUUUGCUAAUAGUAGCAAG [Fam3.1 aminoacylation ribozyme variant] | 2.46 | 1.58 | 1.26 | 1.65 | 1.04 | 1.5 |
| CAGUUUGCUAAUAGUCGCACG [Fam3.1 aminoacylation ribozyme variant] | 1.25 | 1.1 | 1.3 | 1.46 | 1.05 | 1.35 |
| CAGUUUGCUAAUAGUUGCAAG [Fam3.1 aminoacylation ribozyme variant] | 1.55 | 1.44 | 1.53 | 1.18 | 1.23 | 1.5 |
| CAGUUUGCUAUUAGUCGCAAG [Fam3.1 aminoacylation ribozyme variant] | 1.88 | 1.25 | 1.24 | 1.29 | 1.22 | 1.5 |
| CCAAACCUCAAGCAAUCGGUC [Fam1B.1 aminoacylation ribozyme variant] | 1.54 | 1.12 | 1.35 | 1.22 | 1.29 | 1.27 |
| CCAAACUUCAAACAAUCGGUC [Fam1B.1 aminoacylation ribozyme variant] | 86.6 | 1.53 | 1.35 | 42 | 1.52 | 2.21 |
| CCAAACUUCAAGCAAACGGUC [Fam1B.1 aminoacylation ribozyme variant] | 0.911 | 0.699 | 0.832 | 0.811 | 0.846 | 0.607 |
| CCAAACUUCAAGCAAUUGGUC [Fam1B.1 aminoacylation ribozyme variant] | 1.1 | 0.81 | 0.759 | 0.886 | 0.828 | 0.767 |
| CCAAACUUCAAGCCAUCGGUC [Fam1B.1 aminoacylation ribozyme variant] | 1.07 | 1.28 | 1.15 | 1.01 | 1.18 | 1.03 |
| CCAAACUUCAAGCGAUCGGUC [Fam1B.1 aminoacylation ribozyme variant] | 1.09 | 1.11 | 1.1 | 1.25 | 1.35 | 1.32 |
| CCAAACUUUAAGCAAUCGGUC [Fam1B.1 aminoacylation ribozyme variant] | 0.824 | 0.869 | 1.11 | 0.664 | 0.993 | 0.846 |
| CCACAAUGCAAGCAAUCGGUC [Fam1B.1 aminoacylation ribozyme variant] | 1.02 | 1.22 | 1.48 | 0.93 | 1.41 | 1.01 |
| CCACAAUUCAAGAAAUCGGUC [Fam1B.1 aminoacylation ribozyme variant] | 1.38 | 0.78 | 0.949 | 1.41 | 0.906 | 0.866 |
| CCACACAGCAAGCAAUCGGUC [Fam1B.1 aminoacylation ribozyme variant] | 1.35 | 0.699 | 0.864 | 0.608 | 1.11 | 0.787 |
| CCACACAUCAAGCAAGCGGUC [Fam1B.1 aminoacylation ribozyme variant] | 0.546 | 0.779 | 0.968 | 0.988 | 1.03 | 0.901 |
| CCACACAUCAAGCAAUCGGUG [Fam1B.1 aminoacylation ribozyme variant] | 31.6 | 4.98 | 3.27 | 5.14 | 3.26 | 6.65 |
| CCACACAUCAAGCACUCGGUC [Fam1B.1 aminoacylation ribozyme variant] | 0.805 | 1.02 | 0.935 | 0.94 | 1.18 | 0.724 |
| CCACACAUCUAGCAAUCGGUC [Fam1B.1 aminoacylation ribozyme variant] | 0.911 | 0.797 | 0.894 | 0.615 | 0.93 | 0.712 |
| CCACACCUCAACCAAUCGGUC [Fam1B.1 aminoacylation ribozyme variant] | 3.45 | 1.37 | 1.11 | 3.13 | 1.02 | 1.28 |
| CCACACCUCAAGCAAGCGGUC [Fam1B.1 aminoacylation ribozyme variant] | 1.27 | 1.02 | 1.34 | 1.32 | 1.21 | 0.921 |
